Experimental data as given in patent US20170137490A1, “PEPTIDES, AND METHODS AND APPARATUS UTILISING SAME” (The University of Manchester, priority 2014, published 2017).

Test system: human anti-PLA2R autoantibodies
Test: Western blotting of PLA2R fragments with human anti-PLA2R autoantibodies
Type: binding

B1: mouse PLA2R: recombinant mouse PLA2R (R&D) (protein)
chain: QDLTHIQEPSLEWRDKGIFIIQSESLKTCIQAGKSVLTLENCKQPNEHMLWKWVSDDHLFNVGGSGCLGLNISALEQPLKLYECDSTLISLRWHCDRKMIEGPLQYKVQVKSDNTVVARKQIHRWIAYTSSGGDICEHPSRDLYTLKGNAHGMPCVFPFQFKGHWHHDCIREGQKEHLLWCATTSRYEEDEKWGFCPDPTSMKVFCDATWQRNGSSRICYQFNLLSSLSWNQAHSSCLMQGGALLSIADEDEEDFIRKHLSKVVKEVWIGLNQLDEKAGWQWSDGTPLSYLNWSQEITPGPFVEHHCGTLEVVSAAWRSRDCESTLPYICKRDLNHTAQGILEKDSWKYHATHCDPDWTPFNRKCYKLKKDRKSWLGALHSCQSNDSVLMDVASLAEVEFLVSLLRDENASETWIGLSSNKIPVSFEWSSGSSVIFTNWYPLEPRILPNRRQLCVSAEESDGRWKVKDCKERLFYICKKAGQVPADEQSGCPAGWERHGRFCYKIDTVLRSFEEASSGYYCSPALLTITSRFEQAFITSLISSVAEKDSYFWIALQDQNNTGEYTWKTVGQREPVQYTYWNTRQPSNRGGCVVVRGGSSLGRWEVKDCSDFKAMSLCKTPVKIWEKTELEERWPFHPCYMDWESATGLASCFKVFHSEKVLMKRSWREAEAFCEEFGAHLASFAHIEEENFVNELLHSKFNWTQERQFWIGFNRRNPLNAGSWAWSDGSPVVSSFLDNAYFEEDAKNCAVYKANKTLLPSNCASKHEWICRIPRDVRPKFPDWYQYDAPWLFYQNAEYLFHTHPAEWATFEFVCGWLRSDFLTIYSAQEQEFIHSKIKGLTKYGVKWWIGLEEGGARDQIQWSNGSPVIFQNWDKGREERVDSQRKRCVFISSITGLWGTENCSVPLPSICKRVKIWVIEKEKPPTQPGTCPKGWLYFNYKCFLVTIPKDPRELKTWTGAQEFCVAKGGTLVSIKSELEQAFITMNLFGQTTNVWIGLQSTNHEKWVNGKPLVYSNWSPSDIINIPSYNTTEFQKHIPLCALMSSNPNFHFTGKWYFDDCGKEGYGFVCEKMQDTLEHHVNVSDTSAIPSTLEYGNRTYKIIRGNMTWYAAGKSCRMHRAELASIPDAFHQAFLTVLLSRLGHTHWIGLSTTDNGQTFDWSDGTKSPFTYWKDEESAFLGDCAFADTNGRWHSTACESFLQGAICHVVTETKAFEHPGLCSETSVPWIKFKGNCYSFSTVLDSRSFEDAHEFCKSEGSNLLAIRDAAENSFLLEELLAFGSSVQMVWLNAQFDNNNKTLRWFDGTPTEQSNWGLRKPDMDHLKPHPCVVLRIPEGIWHFTPCEDKKGFICKMEAGIPAVTAQPEKGLSHS
B1 was tested, and the “recognition by human anti-PLA2R autoantibodies” value was “fail to react”.
